Assay [1] deals with T1, Recombinant human ALK1-Fc (ALK1 extracellular domain-IgG Fc fusion protein) (human, UniProt P37023 22-118).
T1 construct: extracellular domain; Bought reagent (R&D #370AL is named for the luciferase assay); also called immobilized ALK1; ACVRL1; not shown: IgG Fc of the bought fusion protein (captured on anti-human IgG Fc sensors)
The assay can be described thus: BLI, immobilized ALK1, FIG. 4D. The protocol:
(§1) To characterize the biochemical interactions of the scFv clones with recombinant human ALK1 and BMPR2 receptors, we used Bio-Layer Interferometry (Octet Red 384, ForteBio). Receptors, expressed as IgG Fc fusion proteins (i.e., ALK1-Fc, and BMPR2-Fc) were immobilized onto Anti-Human IgG Fc Capture Sensors (ForteBio, #18-0015) at a concentration of 10 µg/mL in an equilibration buffer of HEPES 20 mM (GIBCO #15630), 0.05% Tween-20 (Promega #H5151), and Imidazole 25 mM (SIGMA #10250) in PBS. All the clones were tested at different ranges of concentration in equilibration buffer: 50 nM, 100 nM, 200 nM, and 400 nM. The ForteBio program methodology was set as follows: Baseline equilibration of 60 s, loading time of 60 s, washing time of 120 s, association time of 300 s, and dissociation time of 600 s. The binding kinetics were analyzed using the ForteBio data analysis software.
Background: In BLI a coated tip is dipped into the sample, and binding shifts an interference pattern.

Assay [2] concerns the target T2, Recombinant human BMPR2-Fc (BMPR2 extracellular domain-IgG Fc fusion protein) (human, UniProt Q13873 27-150).
T2 construct: extracellular domain; also called immobilized BMPR2; BMPRII; not shown: IgG Fc of the fusion protein (captured on anti-human IgG Fc sensors)
T2 sequence (looked up): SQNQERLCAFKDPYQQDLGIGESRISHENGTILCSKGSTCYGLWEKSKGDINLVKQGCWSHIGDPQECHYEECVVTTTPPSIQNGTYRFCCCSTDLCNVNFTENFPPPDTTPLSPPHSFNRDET
As to the kind of experiment: BLI (Octet Red), FIG. 2B. The protocol:
as §1
(§2) Bio-Layer Interferometry was used to determine the affinities of scFv clones for human BMPR2 and ALK1 receptors. The binding kinetics of scFv clones ALK1.3 (FIG. 1A) and ALK1.8 (FIG. 1B) versus immobilized ALK1; and BMPR2.12 (FIG. 1C) and BMPR2.23 (FIG. 1D) against BMPR2 are shown.

In assay [3] the target is T1, Recombinant human ALK1-Fc (ALK1 …). The assay can be described thus: BLI (Octet Red), immobilized ALK1, FIG. 2A. The protocol:
as §1, §2

Assay [4] has the same target. As to the kind of experiment: BLI, immobilized ALK1, FIG. 4B. How it is done: as §1
For assay [5], the target named is T2, Recombinant human BMPR2-Fc (BMPR2 …). As to the kind of experiment: BLI, FIG. 4C. How it is done:
as §1

In assay [6] the target is T1, Recombinant human ALK1-Fc (ALK1 …). As to the kind of experiment: BLI (Octet Red), FIG. 2A. How it is done: as §1, §2
In assay [7] the target is T2, Recombinant human BMPR2-Fc (BMPR2 …). As to the kind of experiment: BLI, immobilized BMPR2, FIG. 4C. The protocol: as §1
Assay [8] concerns the target T1, Recombinant human ALK1-Fc (ALK1 …). As to the kind of experiment: BLI, FIG. 4B. How it is done:
as §1

T1 sequence (P37023 22-118): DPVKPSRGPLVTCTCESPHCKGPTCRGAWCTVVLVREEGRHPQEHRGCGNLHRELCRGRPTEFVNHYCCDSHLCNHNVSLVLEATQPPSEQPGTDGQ

B1: scFv clone BMPR2.23 (anti-BMPR2/BMPRII) (scFv)
scFv: QAVLTQPSSLSASPGASASLTCTLHSGINVATYRIYWYQQKPGSPPQYLLTYKSDLDKHQGSGVPSRFSGSKDASANAGILLISGLQSDDEGDYYCLIWHDYVWYFGGGTKVTVLGEGKSSGSGSESKASEVQLLESGGGLVQPGRSLRLSCAASGFTFDDYAMHWVRQAPGKGLEWVSGISWNSGSIGYADSVKGRFTISRDNAKNSLYLQMNSLRAEDTALYYCAKGGWGSSTHYYYGMDVWGQGTTVTVSS
Consider B1, for which the binding result in assay [1] is “no binding”.

B2: Biotinylated scFv BMPR2.23 (scFv)
scFv: QAVLTQPSSLSASPGASASLTCTLHSGINVATYRIYWYQQKPGSPPQYLLTYKSDLDKHQGSGVPSRFSGSKDASANAGILLISGLQSDDEGDYYCLIWHDYVWYFGGGTKVTVLGEGKSSGSGSESKASEVQLLESGGGLVQPGRSLRLSCAASGFTFDDYAMHWVRQAPGKGLEWVSGISWNSGSIGYADSVKGRFTISRDNAKNSLYLQMNSLRAEDTALYYCAKGGWGSSTHYYYGMDVWGQGTTVTVSS
modifications: biotinylated (DSB-X Biotin Protein Labeling Kit; average 1.5-2 sites per molecule; sites not stated)
notes: BMPR2.23 scFv after biotinylation
Regarding B2, the binding result in assay [1] is on record as “no binding”.

B3: scFv clone BMPR2.12 (anti-BMPR2/BMPRII) (scFv)
scFv: QSALTQPASVSGSPGQSITISCTGTSSDVGGYKSVSWYQQHPGKAPKLMIYDVSNRPSGVSDRFSGSKSGNTASLTISGLQAEDEADYYCSSYTSSSSLWVFGGGTKLTVLGEGKSSGSGSESKASQVQLVQSGAEVKKPGSSVKVSCKASGGTFSSYAISWVRQAPGQGLEWMGRIIPILGIANYAQKFQGRVTMTEDTSTDTAYMELSSLRSEDTAVYYCATDLWGVGADWGQGTLVTVSS
notes: Human scFv from phage display, VL-linker-VH, expressed in E. coli
As for B3, the values for the binding result in assay [2] and in assay [3] were “binds” and “no binding”, respectively.

B4: Biotinylated scFv BMPR2.12 (scFv)
scFv: QSALTQPASVSGSPGQSITISCTGTSSDVGGYKSVSWYQQHPGKAPKLMIYDVSNRPSGVSDRFSGSKSGNTASLTISGLQAEDEADYYCSSYTSSSSLWVFGGGTKLTVLGEGKSSGSGSESKASQVQLVQSGAEVKKPGSSVKVSCKASGGTFSSYAISWVRQAPGQGLEWMGRIIPILGIANYAQKFQGRVTMTEDTSTDTAYMELSSLRSEDTAVYYCATDLWGVGADWGQGTLVTVSS
modifications: biotinylated (DSB-X Biotin Protein Labeling Kit; average 1.5-2 sites per molecule; sites not stated)
notes: BMPR2.12 scFv after low substitution ratio biotinylation; also called BMPR2.12-Bio
Take B4: the binding result is “no binding” in assay [4] and “binds” in assay [5].

B5: scFv clone ALK1.3 (anti-ACVRL1/ALK1) (scFv)
scFv: QSALTQPASVSGSPGQSITISCAGTSSDVGTYNYVSWYQQHPGKAPKLMIYDVSKRPSGVPDRFSGSKSGNTASLTISGLQAEDEADYYCYSYTTSSTWVFGGGTKVTVLGEGKSSGSGSESKASQVQLQESGPGLLKPSQTLSLTCTVSGDSIGSGDYYWSWIRQPPGKGLEWIGYSYHTGSTDYNPSLKSRVSISVDRSKNQFSLKLRSVTAADTAVYYCARDYYGYLGYWGQGTLVTVSS
notes: as for B3
As to B5, the binding result in assay [6] is given as “binds”; in assay [7], “no binding”.

B6: Biotinylated scFv ALK1.3 (scFv)
scFv: QSALTQPASVSGSPGQSITISCAGTSSDVGTYNYVSWYQQHPGKAPKLMIYDVSKRPSGVPDRFSGSKSGNTASLTISGLQAEDEADYYCYSYTTSSTWVFGGGTKVTVLGEGKSSGSGSESKASQVQLQESGPGLLKPSQTLSLTCTVSGDSIGSGDYYWSWIRQPPGKGLEWIGYSYHTGSTDYNPSLKSRVSISVDRSKNQFSLKLRSVTAADTAVYYCARDYYGYLGYWGQGTLVTVSS
modifications: biotinylated (DSB-X Biotin Protein Labeling Kit; average 1.5-2 sites per molecule; sites not stated)
notes: ALK1.3 scFv after low substitution ratio biotinylation; also called ALK1.3-Bio
Take B6: the binding result in assay [8] is reported as “binds”; in assay [7] it was “no binding”.

Source of the values: patent publication US20230220085A1 (BRIGHAM AND WOMEN S HOSPITAL, published 2023).
